Reference: US20260317437 (published 2026)
Where a chain is given by its changes, count along the chain named. In names and notes the source's numbering stands. Read-outs that look alike come from different tables or passages of the source. Each block holds one binder with its values, some of them ahead of it.

What was measured:
Experiment in all cases: SPR
[1] = target: T1, GCGR extracellular domain (human, UniProt P47871)
[2] = target: T1, GCGR extracellular domain; remark: listed apart in the source
[3] = target: T1, GCGR extracellular domain; remark: listed apart in the source

T1 sequence (P47871 26-477): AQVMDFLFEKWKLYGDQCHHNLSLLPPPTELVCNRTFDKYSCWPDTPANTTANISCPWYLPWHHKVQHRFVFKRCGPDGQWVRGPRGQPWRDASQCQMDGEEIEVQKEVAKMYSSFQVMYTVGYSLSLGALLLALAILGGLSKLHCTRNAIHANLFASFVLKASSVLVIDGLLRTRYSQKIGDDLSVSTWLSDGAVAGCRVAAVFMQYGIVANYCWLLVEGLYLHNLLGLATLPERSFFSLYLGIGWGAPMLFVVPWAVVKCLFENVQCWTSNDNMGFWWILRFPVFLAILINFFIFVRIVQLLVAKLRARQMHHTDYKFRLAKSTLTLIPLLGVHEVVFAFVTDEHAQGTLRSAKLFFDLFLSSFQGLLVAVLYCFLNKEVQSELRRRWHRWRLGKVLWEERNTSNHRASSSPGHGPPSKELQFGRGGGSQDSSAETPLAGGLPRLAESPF

B1: VH Y31W (antibody, V domains shown)
VH: EVQLVESGGGLVQPGGSLRLSCAASGFNIYWNYIHWVRQAPGKGLEWVAEFSPYSGSTYYADSVKGRFTISADTSKNTAYLQMNSLRAEDTAVYYCARSAAIVDWYDYFKGFDYWGQGTLVTVSS
VL: DIQMTQSPSSLSASVGDRVTITCRASQSVSSAVAWYQQKPGKAPKLLIYSASSLYSGVPSRFSGSRSGTDFTLTISSLQPEDFATYYCQQYGSYLYTFGQGTKVEIK
binding result [1]: no binding

B2: VL Y91L (antibody, V domains shown)
VH: B1 VH with W31Y
VL: B1 VL with Y91L
Kd [2]: 4.2 nM

B3: VH W100aK (antibody, V domains shown)
VH: B1 VH with W31Y, W105K
VL: B1 VL
binding result [1]: no binding

B4: VL Y94A (antibody, V domains shown)
VH: B1 VH with W31Y
VL: B1 VL with Y94A
Kd [2]: 2.64 nM

B5: VH Y31K (antibody, V domains shown)
VH: B1 VH with W31K
VL: B1 VL
binding result [1]: no binding

B6: VH Y31F (antibody, V domains shown)
VH: B1 VH with W31F
VL: B1 VL
Kd [2]: 6.94 nM

B7: VH Y30T (antibody, V domains shown)
VH: B1 VH with Y30T, W31Y
VL: B1 VL
Kd [2]: 24.8 nM

B9: VH W100aH (antibody, V domains shown)
VH: B1 VH with W31Y, W105H
VL: B1 VL
Kd [2]: 41.7 nM

B11: VL Y94H (antibody, V domains shown)
VH: B1 VH with W31Y
VL: B1 VL with Y94H
Kd [2]: 3.02 nM

B13: VH Y30A (antibody, V domains shown)
VH: B1 VH with Y30A, W31Y
VL: B1 VL
Kd [2]: 21.3 nM

B14: VH W100aR (antibody, V domains shown)
VH: B1 VH with W31Y, W105R
VL: B1 VL
binding result [1]: no binding

B17: VL Y94T (antibody, V domains shown)
VH: B1 VH with W31Y
VL: B1 VL with Y94T
Kd [2]: 2.71 nM

B18: VH Y31N (antibody, V domains shown)
VH: B1 VH with W31N
VL: B1 VL
binding result [1]: no binding

B19: VH Y30L (antibody, V domains shown)
VH: B1 VH with Y30L, W31Y
VL: B1 VL
Kd [2]: 4.63 nM

B20: VH Y31S (antibody, V domains shown)
VH: B1 VH with W31S
VL: B1 VL
binding result [1]: no binding

B21: VL Y91W (antibody, V domains shown)
VH: B1 VH with W31Y
VL: B1 VL with Y91W
Kd [2]: 3.02 nM

B25: VL Y55A (antibody, V domains shown)
VH: B1 VH with W31Y
VL: B1 VL with Y55A
Kd [3]: 0.74 nM

B27: VL Y91D (antibody, V domains shown)
VH: B1 VH with W31Y
VL: B1 VL with Y91D
Kd [2]: 7.08 nM

B28: VL Y91E (antibody, V domains shown)
VH: B1 VH with W31Y
VL: B1 VL with Y91E
Kd [2]: 3.42 nM

B29: VH Y30S (antibody, V domains shown)
VH: B1 VH with Y30S, W31Y
VL: B1 VL
Kd [2]: 261 nM

B30: VH Y30E (antibody, V domains shown)
VH: B1 VH with Y30E, W31Y
VL: B1 VL
Kd [2]: 45.1 nM

B32: VH Y31D (antibody, V domains shown)
VH: B1 VH with W31D
VL: B1 VL
binding result [1]: no binding

B33: VH Y30I (antibody, V domains shown)
VH: B1 VH with Y30I, W31Y
VL: B1 VL
Kd [2]: 5.54 nM

B34: VH Y30N (antibody, V domains shown)
VH: B1 VH with Y30N, W31Y
VL: B1 VL
Kd [2]: 103 nM

B35: VH Y31T (antibody, V domains shown)
VH: B1 VH with W31T
VL: B1 VL
Kd [2]: 194 nM

B36: VH S54R (antibody, V domains shown)
VH: B1 VH with W31Y, S55R
VL: B1 VL
Kd [2]: 16 nM

B38: VH Y31R (antibody, V domains shown)
VH: B1 VH with W31R
VL: B1 VL
binding result [1]: no binding

B39: VH Y31E (antibody, V domains shown)
VH: B1 VH with W31E
VL: B1 VL
binding result [1]: no binding

B42: VH Y31H (antibody, V domains shown)
VH: B1 VH with W31H
VL: B1 VL
Kd [2]: 17.5 nM

B43: VH Y30D (antibody, V domains shown)
VH: B1 VH with Y30D, W31Y
VL: B1 VL
Kd [2]: 20.2 nM

B44: VH Y31I (antibody, V domains shown)
VH: B1 VH with W31I
VL: B1 VL
binding result [1]: no binding

B46: VL Y91H (antibody, V domains shown)
VH: B1 VH with W31Y
VL: B1 VL with Y91H
Kd [2]: 2.82 nM

The remaining lines, values ahead:

Kd [2]: 2.08 nM
B8: VL Y94S (antibody, V domains shown)
VH: B1 VH with W31Y
VL: B1 VL with Y94S

Kd [2]: 2.08 nM
B10: VL Y94Q (antibody, V domains shown)
VH: B1 VH with W31Y
VL: B1 VL with Y94Q

Kd [2]: 1.85 nM
B12: VL Y94E (antibody, V domains shown)
VH: B1 VH with W31Y
VL: B1 VL with Y94E

Kd [2]: 1.27 nM
B15: VL S93T (antibody, V domains shown)
VH: B1 VH with W31Y
VL: B1 VL with S93T

Kd [2]: 1.92 nM
B16: VL Y94D (antibody, V domains shown)
VH: B1 VH with W31Y
VL: B1 VL with Y94D

Kd [2]: 2.42 nM
B22: VL Y91T (antibody, V domains shown)
VH: B1 VH with W31Y
VL: B1 VL with Y91T

Kd [2]: 2.18 nM
B23: VL S93Q (antibody, V domains shown)
VH: B1 VH with W31Y
VL: B1 VL with S93Q

Kd [2]: 2.05 nM
B24: VL Y94L (antibody, V domains shown)
VH: B1 VH with W31Y
VL: B1 VL with Y94L

Kd [2]: 1.74 nM
B26: VL S93V (antibody, V domains shown)
VH: B1 VH with W31Y
VL: B1 VL with S93V

Kd [2]: 1.41 nM
B31: VL Y94R (antibody, V domains shown)
VH: B1 VH with W31Y
VL: B1 VL with Y94R

Kd [2]: 2.38 nM
B37: VL S93H (antibody, V domains shown)
VH: B1 VH with W31Y
VL: B1 VL with S93H

Kd [2]: 2.46 nM
B40: VL Y94V (antibody, V domains shown)
VH: B1 VH with W31Y
VL: B1 VL with Y94V

Kd [2]: 2.28 nM
B41: VL S93I (antibody, V domains shown)
VH: B1 VH with W31Y
VL: B1 VL with S93I

Kd [2]: 1.84 nM
B45: VL Y94N (antibody, V domains shown)
VH: B1 VH with W31Y
VL: B1 VL with Y94N

Kd [2]: 2.23 nM
B47: VL Y94F (antibody, V domains shown)
VH: B1 VH with W31Y
VL: B1 VL with Y94F
